# According to patent US20250197838A1, “UROKINASE-TYPE PLASMINOGEN ACTIVATOR RECEPTOR BINDING PEPTIDES AND METHODS OF USE” (The United States Government as represented by the …, priority 2022, published 2025):
# B1: W4A variant: zymogen FXII with single Ala substitution of W residue at position 4 (protein)
# chain: IPPAEAPKEHKYKAEEHTVVLTVTGEPCHFPFQYHRQLYHKCTHKGRPGPQPWCATTPNFDQDQRWGYCLEPKKVKDHCSKHSPCQKGGTCVNMPSGPHCLCPQHLTGNHCQKEKCFEPQLLRFFHKNEIWYRTEQAAVARCQCKGPDAHCQRLASQACRTNPCLHGGRCLEVEGHRLCHCPVGYTGAFCDVDTKASCYDGRGLSYRGLARTTLSGAPCQPWASEATYRNVTAEQARNWGLGGHAFCRNPDNDIRPWCFVLNRDRLSWEYCDLAQCQTPTQAAPPTPVSPRLHVPLMPAQPAPPKPQPTTRTPPQSQTPGALPAKREQPPSLTRNGPLSCGQRLRKSLSSMTRVVGGLVALRGAHPYIAALYWGHSFCAGSLIAPCWVLTAAHCLQDRPAPEDLTVVLGQERRNHSCEPCQTLAVRSYRLHEAFSPVSYQHDLALLRLQEDADGSCALLSPYVQPVCLPSGAARPSETTLCQVAGWGHQFEGAEEYASFLQEAQVPFLSLERCSAPDVHGSSILPGMLCAGFLEGGTDACQGDSGGPLVCEDQAAERRLTLQGIISWGSGCGDRNKPGVYTDVAYYLAWIREHTVS
# B2: DLA peptide (DLAQCQTPTQAAPPTPVSPR) (peptide)
# peptide: DLAQCQTPTQAAPPTPVSPR
# notes: Synthesized FXII-derived peptide
# B3: LHV peptide (LHVPLMPAQPAPPK) (peptide)
# peptide: LHVPLMPAQPAPPK
# notes: as for B2
# B4: IPP peptide (IPPWEAPK) (peptide)
# peptide: IPPWEAPK
# notes: as for B2
# Experiments:
# FXII-uPAR binding = FXII-uPAR binding (Homo sapiens, UniProt Q03405); experiment: Microscale thermophoresis of FXII-uPAR binding in absence or presence of FXII-derived inhibitory peptides; conditions: FIG. 2A
# Sequence of FXII-uPAR binding (Q03405 23-305 limits assumed): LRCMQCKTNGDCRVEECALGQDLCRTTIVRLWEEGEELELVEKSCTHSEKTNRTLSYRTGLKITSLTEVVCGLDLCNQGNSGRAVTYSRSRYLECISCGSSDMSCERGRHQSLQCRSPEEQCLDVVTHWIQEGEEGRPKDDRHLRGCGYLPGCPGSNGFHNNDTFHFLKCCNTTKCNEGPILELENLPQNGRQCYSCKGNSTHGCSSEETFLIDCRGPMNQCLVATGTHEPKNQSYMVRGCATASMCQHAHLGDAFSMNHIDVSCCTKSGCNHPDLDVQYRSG
# Protocol: FIGS. 2A-D show the characterization of FXII-derived inhibitory peptides. […] FXII_fl: recombinant full length FXII: Combo: combination of IPP-DLA-LHV peptides, 10 μM each. * p=0.004 FXII_fl vs. Combo, 2-way ANOVA.
# The results provide insight on the structure of the non-catalytic region of FXII. These advances have also provided the structural details required to develop peptide antagonists. To this end, 3 peptides containing FXII amino acid residues implicated in uPAR binding were synthesized and termed “IPP” (corresponding to SEQ ID NO: 1), “DLA” (corresponding to SEQ ID NO: 2), and “LHV” (corresponding to SEQ ID NO: 3). The kinetics of peptide interference with FXII-uPAR binding was screened which yielded nanomolar affinity for each (FIG. 2A).
# uPAR [1] = biological target: T1, uPAR (Homo sapiens, UniProt Q03405); experiment: Hydroxyl radical footprinting (HRF) with LC-MS: free FXII vs FXII in complex with uPAR; type: binding
# Protocol: Briefly, free uPAR and human FXII protein samples were prepared with the final protein concentration of 2.5 μM and 3 μM, respectively (1:1.2 uPAR: FXII molar ratio). Free uPAR and FXII and FXII-uPAR complex were exposed to hydroxyl radicals for intervals of 0, 12, 20, and 40 milliseconds using the X-ray beam line. Next, the irradiated samples were reduced and alkylated with 10 mM and 25 mM of DTT and iodoacetamide, respectively. Subsequently, the samples were subjected to a trypsin and AspN digestion (1:10 enzyme to protein ratio) followed by liquid chromatography coupled with high-resolution mass spectrometry (LC-MS). The MS data were analyzed manually resulting in dose-response plots for each peptide. The HRF process introduces stable side chain oxidative modifications resulting in specific mass shifts, which were identified from the tandem mass spectrometry data. The selected ion chromatograms (SIC) were extracted and integrated for the un-oxidized and the oxidized forms of peptide ion (with particular m z). These peak area values were used to characterize reaction kinetics in the form of dose-response (DR) plots, which measure the loss of intact peptide as a function of the hydroxyl radical exposure. […] Differences in the rate of oxidation (called rate constant, RC) indicate the potential locations of the binding interface. MSI data for free and complex proteins were used to determine RC values for each peptide within the protein. Peptide location and the corresponding sequence are shown in columns 1 and 2, respectively. The third and fourth columns show the RC values for the free FXII protein and complex, respectively. The RC values were averaged from replicate experiments and the associated errors are shown next to each RC value.
# Target sequence in this assay (Q03405 23-305 limits assumed): as above
# uPAR [2] = biological target: T1, uPAR; experiment: Microscale thermophoresis of uPAR binding on site-directed FXII mutants (Ala substitutions); conditions: FIG. 1D
# Text: FIGS. 1A-D show the characterization of the FXII-uPAR binding interphase.
# Each variant was characterized in several assays including microscale thermophoresis. […] These findings explain, at least in part, why the FXII-uPAR interaction is not a constitutive process in vivo.
# Target sequence in this assay (Q03405 23-305): as the sequence (Q03405 23-305 limits assumed) above
# [3] = biological target: T2, urokinase-type plasminogen activator receptor (uPAR; Plaur, Homo sapiens) (Homo sapiens, UniProt Q03405 23-305, limits assumed); experiment: peptide interference with FXII-uPAR binding, microscale thermophoresis
# T2 construct: also called human uPAR; human soluble uPAR
# T2 sequence (Q03405 23-305 limits assumed): as above
molecule,measurement,setting,value
DLAQCQTPTQAAPPTPVSPR [listing 1 of 2 here],"affinity, peptide interference with FXII-uPAR binding",FXII-uPAR binding,nanomolar
DLAQCQTPTQAAPPTPVSPR [listing 2 of 2 here],"Modification rate, KFXII, S^−1 FXII free","uPAR [1]; site P285, FXII position 272-291",1.3 ± 0.061 S^−1
same,"Modification rate, KCOM, S^−1 FXII complex","uPAR [1]; site P285, FXII position 272-291, complex with human uPAR",0.87 ± 0.030 S^−1
same,"Modification rate, KFXII, S^−1 FXII free","uPAR [1]; site P287, FXII position 272-291",0.23 ± 0.021 S^−1
same,"Modification rate, KCOM, S^−1 FXII complex","uPAR [1]; site P287, FXII position 272-291, complex with human uPAR",0.11 ± 0.009 S^−1
same,"Modification rate, KFXII, S^−1 FXII free","uPAR [1]; site Q281, FXII position 272-291",0.97 ± 0.047 S^−1
same,"Modification rate, KCOM, S^−1 FXII complex","uPAR [1]; site Q281, FXII position 272-291, complex with human uPAR",0.53 ± 0.019 S^−1
same,"Modification rate, KFXII, S^−1 FXII free","uPAR [1]; site V288, FXII position 272-291",0.71 ± 0.04 S^−1
same,"Modification rate, KCOM, S^−1 FXII complex","uPAR [1]; site V288, FXII position 272-291, complex with human uPAR",0.46 ± 0.019 S^−1
IPPWEAPK [listing 1 of 2 here],"affinity, peptide interference with FXII-uPAR binding",FXII-uPAR binding,nanomolar
IPPWEAPK [listing 2 of 2 here],"Modification rate, KFXII, S^−1 FXII free","uPAR [1]; site W4, FXII position 1-8",3.08 ± 0.25 S^−1
same,"Modification rate, KCOM, S^−1 FXII complex","uPAR [1]; site W4, FXII position 1-8, complex with human uPAR",3.08 ± 0.13 S^−1
LHVPLMPAQPAPPK [listing 1 of 2 here],"affinity, peptide interference with FXII-uPAR binding",FXII-uPAR binding,nanomolar
LHVPLMPAQPAPPK [listing 2 of 2 here],"Modification rate, KFXII, S^−1 FXII free","uPAR [1]; site H293, FXII position 292-305",2.55 ± 0.30 S^−1
same,"Modification rate, KCOM, S^−1 FXII complex","uPAR [1]; site H293, FXII position 292-305, complex with human uPAR",1.82 ± 0.15 S^−1
same,"Modification rate, KFXII, S^−1 FXII free","uPAR [1]; site K305, FXII position 292-305",1.06 ± 0.063 S^−1
same,"Modification rate, KCOM, S^−1 FXII complex","uPAR [1]; site K305, FXII position 292-305, complex with human uPAR",0.58 ± 0.042 S^−1
same,"Modification rate, KFXII, S^−1 FXII free","uPAR [1]; site L296, FXII position 292-305",0.62 ± 0.054 S^−1
same,"Modification rate, KCOM, S^−1 FXII complex","uPAR [1]; site L296, FXII position 292-305, complex with human uPAR",0.29 ± 0.057 S^−1
same,"Modification rate, KFXII, S^−1 FXII free","uPAR [1]; site V294, FXII position 292-305",0.85 ± 0.093 S^−1
same,"Modification rate, KCOM, S^−1 FXII complex","uPAR [1]; site V294, FXII position 292-305, complex with human uPAR",0.79 ± 0.078 S^−1
B1,FXII-uPAR binding of FXII variant,uPAR [2],significantly reduced
B2,binding result,[3],binds
B3,binding result,[3],binds
B4,binding result,[3],binds
